Measurements: patent US20210379129A1 (BIOCOMO INCORPORATION, published 2021)

Assays:
[1] = biological target: T1, mouse OX40L incorporated into the envelope of BC-PIV particles (mouse, UniProt P43488 1-198, Membrane-anchored type II protein on the BC-PIV envelope, expected as a homotrimer; one protomer is given.); assay: ELISA: 1x10^6 BC-PIV particles coated per well, receptor-Fc added at 1, 10, 50, 100 ng, HRP-Protein A, absorbance at 450 nm
T1 construct: Whole membrane protein on virus particles coated on the ELISA plate (1x10^6 particles per well); The form 'whole, on cells' is the nearest choice; the carrier is a virus envelope; also called mouse OX40L-carrying BC-PIV; BC-PIV/OX40L
T1 sequence: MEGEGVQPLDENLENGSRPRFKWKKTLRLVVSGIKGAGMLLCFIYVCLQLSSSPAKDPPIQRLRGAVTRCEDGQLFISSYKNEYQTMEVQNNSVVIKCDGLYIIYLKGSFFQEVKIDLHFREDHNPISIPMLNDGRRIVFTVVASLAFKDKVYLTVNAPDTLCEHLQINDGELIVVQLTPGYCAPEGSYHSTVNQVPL

[2] = biological target: T2, mouse 4-1BBL incorporated into the envelope of BC-PIV particles (mouse, UniProt P41274 1-309, Membrane-anchored type II protein on the BC-PIV envelope; paragraph 280 expects trimers that associate into higher multimers; one protomer is given.); assay: as above
T2 construct: Whole membrane protein on virus particles coated on the ELISA plate; also called mouse 4-1BBL-carrying BC-PIV; BC-PIV/4-1BBL
T2 sequence: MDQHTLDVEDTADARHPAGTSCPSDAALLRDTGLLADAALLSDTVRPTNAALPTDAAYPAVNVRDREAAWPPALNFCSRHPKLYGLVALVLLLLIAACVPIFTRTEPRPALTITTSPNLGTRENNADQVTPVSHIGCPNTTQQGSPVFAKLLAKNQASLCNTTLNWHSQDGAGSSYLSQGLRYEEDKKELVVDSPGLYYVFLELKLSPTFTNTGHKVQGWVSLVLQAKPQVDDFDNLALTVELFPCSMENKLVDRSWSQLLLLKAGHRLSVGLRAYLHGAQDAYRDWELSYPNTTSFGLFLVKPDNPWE

[3] = biological target: T3, human OX40 receptor (BioLegend Inc, Cat #780804) (human, UniProt P43489 29-214); assay: ELISA: 1x10^6 BC-PIV particles coated per well, receptor added at 1, 10, 50, 100 ng, HRP-Protein A, absorbance at 450 nm
T3 construct: Bought reagent; No Fc tag is stated for this one, but detection was by HRP-Protein A 'adsorbed on the human Fc region', so a human Fc tag is likely; also called human OX40 receptor protein
T3 sequence: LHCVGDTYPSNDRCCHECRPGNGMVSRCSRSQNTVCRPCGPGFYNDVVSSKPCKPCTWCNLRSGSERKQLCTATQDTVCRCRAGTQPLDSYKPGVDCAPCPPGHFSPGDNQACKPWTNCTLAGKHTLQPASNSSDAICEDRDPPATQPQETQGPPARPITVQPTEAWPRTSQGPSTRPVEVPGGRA

B1: trimeric mouse OX40 receptor (C-terminal human IgG Fc Tag; BioLegend Inc, Cat #78904) (Fc fusion)
chain: VTARRLNCVKHTYPSGHKCCRECQPGHGMVSRCDHTRDTLCHPCETGFYNEAVNYDTCKQCTQCNHRSGSELKQNCTPTQDTVCRCRPGTQPRQDSGYKLGVDCVPCPPGHFSPGNNQACKPWTNCTLSGKQTRHPASDSLDAVCEDRSLLATLLWETQRPTFRPTTVQSTTVWPRTSELPSPPTLVTPEGP
notes: Bought reagent, called 'trimeric'; not shown: C-terminal human IgG Fc tag
B1: binds [1].

B2: mouse 4-1BB receptor (C-terminal human IgG Fc Tag; BioLegend Inc, Cat #756704) (Fc fusion)
chain: VQNSCDNCQPGTFCRKYNPVCKSCPPSTFSSIGGQPNCNICRVCAGYFRFKKFCSSTHNAECECIEGFHCLGPQCTRCEKDCRPGQELTKQGCKTCSLGTFNDQNGTGVCRPWTNCSLDGRSVLKTGTTEKDVVCGPPVVSFSPSTTISVTPEGGPGGHSLQVL
notes: Bought reagent; also called mouse 4-1BB receptor protein; not shown: C-terminal human IgG Fc tag
B2: binds [2].

B3: human OX40L incorporated into the envelope of BC-PIV particles (ligand)
chain: MERVQPLEENVGNAARPRFERNKLLLVASVIQGLGLLLCFTYICLHFSALQVSHRYPRIQSIKVQFTEYKKEKGFILTSQKEDEIMKVQNNSVIINCDGFYLISLKGYFSQEVNISLHYQKDEEPLFQLKKVRSVNSLMVASLTYKDKVYLNVTTDNTSLDDFHVNGGELILIHQNPGEFCVL
modifications: Membrane-anchored type II protein on the BC-PIV envelope, expected as a homotrimer; one protomer is given.
notes: Whole membrane protein on virus particles coated on the ELISA plate; also called human OX40L-carrying BC-PIV
B3: binds [3].
